# Experiments:
# [1] = tested on: Collagenase Type I (Clostridium histolyticum); test: In vitro degradation of peptide-PCL samples with collagenase; type: in vitro ADME; details: 37°C, mean ± SD; for Mass loss in collagenase: 2 mg/mL collagenase in ZB, 21 days, washed, lyophilized, weighed, n = 4; for Cumulative Cy3 release / Cumulative Cy3 release as % of the total Cy3 in the sample: 10 mm solvent-cast disks, 2 mg/mL collagenase in 1X ZB, 5% CO2, 21 days, fluorescence ex 550/em 580 nm, n = 6
# Description: (§1) Samples were pinned to silicone elastomer‐coated 24‐well plates using 0.1 mm dissection pins. The degradation behavior of the samples in the presence of collagenase was assessed by immersing pinned samples in 2 mg/mL collagenase in 1X Zymogram Developing Buffer (ZB). Solutions (1 mL) were collected and changed after the first day of incubation then after every 3–4 days. Samples were placed in an incubator (37°C, 5% CO2) for up to 21 days. Samples were also exposed to ZB as a baseline control.
# (§2) Samples were weighed before and after 21 days of incubation with ZB or collagenase. After the 21‐day incubation period, samples were collected and washed three times with ultrapure water to remove residual enzymes or salts. Following washing, samples were lyophilized and subsequently weighed to determine the final mass. Percent mass loss was calculated based on the difference between initial and final masses.
# [2] = type: in vitro ADME
# Description: as §1, §2
# multiple cell types = details: prior peptide screening methods; cited from earlier work
# Description: We also included a scrambled version of Fast (LTRLMEKRRKV; ScrFast) in which the positions of uncharged amino acids (L, M, V) were exchanged with the charged amino acids (E, K, R). We quantified degradation of these four peptides with different mac ...
substance,measurement,setting,value
"CK(Cy3)KRVKRRL↓LMETC [Fast‐PCL, linear PCL‐PEG‐peptide‐PEG‐PCL conjugate of Cy3‐modified Fast with maleimide‐functionalized PCL (25 kDa) / PEG (5 kDa); tested as solvent‐cast disks with RGDS‐PCL]",Mass loss in collagenase,[1],22.1% ± 1.2%
same,Cumulative Cy3 release,[1],20.38 ± 2.17 nmol
same,Cumulative Cy3 release as % of the total Cy3 in the sample,[1],25.77% ± 3.70%
same,Mass loss in ZB,[2],16.5% ± 1.6%
"CK(Cy3)LTRLMEKRRKVC [ScrFast‐PCL, linear PCL‐PEG‐peptide‐PEG‐PCL conjugate of Cy3‐modified ScrFast; tested as solvent‐cast disks with RGDS‐PCL]",Mass loss in collagenase,[1],18.9% ± 3.8%
same,Cumulative Cy3 release,[1],8.70 ± 0.92 nmol
same,Cumulative Cy3 release as % of the total Cy3 in the sample,[1],11.31% ± 1.01%
same,Mass loss in ZB,[2],15.2% ± 7.8%
PPDKTSPEPA [Control],Peptide degradation behavior in prior peptide screening,multiple cell types,negligible degradation behavior

# From publication PMC13378486, “Design and Synthesis of Peptide‐Polyester Conjugates for Cell‐Mediated Scaffold Degradation” (Advanced Healthcare Materials, 2026)
